# Reference: ChEMBL document CHEMBL2074348, “Human neurons express the polyspecific cation transporter hOCT2, which translocates monoamine neurotransmitters, amantadine, and memantine” (Mol Pharmacol, 1998)
# Several values for one entry are separate records, joined by “and”; a condition that tells them apart may be missing. Equal entries are not always repeated.
# T1: Solute carrier family 22 member 2 (Homo sapiens, UniProt O15244)
# T1 sequence (O15244 whole entry): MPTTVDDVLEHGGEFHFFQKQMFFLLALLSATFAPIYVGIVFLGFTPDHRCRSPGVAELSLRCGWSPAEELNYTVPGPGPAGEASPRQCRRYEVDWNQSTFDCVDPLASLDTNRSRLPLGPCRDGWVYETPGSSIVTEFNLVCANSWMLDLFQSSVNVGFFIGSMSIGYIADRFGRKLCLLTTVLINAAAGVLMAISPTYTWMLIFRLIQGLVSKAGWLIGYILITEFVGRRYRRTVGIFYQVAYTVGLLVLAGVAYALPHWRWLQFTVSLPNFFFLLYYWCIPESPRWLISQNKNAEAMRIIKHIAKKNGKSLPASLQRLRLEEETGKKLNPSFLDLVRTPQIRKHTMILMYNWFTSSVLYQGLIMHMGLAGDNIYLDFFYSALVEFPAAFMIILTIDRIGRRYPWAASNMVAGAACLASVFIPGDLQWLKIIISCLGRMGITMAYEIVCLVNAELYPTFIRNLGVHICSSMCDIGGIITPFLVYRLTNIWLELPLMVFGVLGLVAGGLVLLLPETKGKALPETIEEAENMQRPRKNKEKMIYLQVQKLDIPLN
# What was measured:
# [1] = target: T1, Solute carrier family 22 member 2; experiment: TP_TRANSPORTER: inhibition of Dopamine uptake (Dopamine: 200 uM) in Xenopus laevis oocytes; assay type: functional, cell-based, Oocyte
# [2] = target: T1, Solute carrier family 22 member 2; experiment: TP_TRANSPORTER: uptake in OCT2-expressing HEK293 cells; assay type: functional, cell-based
# [3] = substrate: NCCc1c[nH]c2ccc(O)cc12; experiment: (§1) TP_TRANSPORTER: uptake in Xenopus laevis oocytes; assay type: functional, cell-based, Oocyte
# [4] = substrate: NC[C@H](O)c1ccc(O)c(O)c1; experiment: as §1; assay type: functional, cell-based, Oocyte
# [5] = substrate: CC12CC3CC(C)(C1)CC(N)(C3)C2; experiment: (§2) TP_TRANSPORTER: uptake (electrogenesis) in Xenopus laevis oocytes; assay type: functional, cell-based, Oocyte
# [6] = substrate: NC12CC3CC(CC(C3)C1)C2; experiment: as §2; assay type: functional, cell-based, Oocyte
# [7] = substrate: NCCc1c[nH]cn1; experiment: cells, lysate or membranes named
# [8] = substrate: NCCc1ccc(O)c(O)c1; experiment: cells, lysate or membranes named
molecule,measurement,setting,value
NC12CC3CC(CC(C3)C1)C2 [AMANTADINE],IC50,[1],23 µM
C[n+]1ccc(-c2ccccc2)cc1,Km,[2],16 µM
Solute carrier family 22 member 2 (Homo sapiens) (protein) MPTTVDDVLEHGGEFHFFQKQMFFLLALLSATFAPIYVGIVFLGFTPDHRCRSPGVAELSLRCGWSPAEELNYTVPGPGPAGEASPRQCRRYEVDWNQSTFDCVDPLASLDTNRSRLPLGPCRDGWVYETPGSSIVTEFNLVCANSWMLDLFQSSVNVGFFIGSMSIGYIADRFGRKLCLLTTVLINAAAGVLMAISPTYTWMLIFRLIQGLVSKAGWLIGYILITEFVGRRYRRTVGIFYQVAYTVGLLVLAGVAYALPHWRWLQFTVSLPNFFFLLYYWCIPESPRWLISQNKNAEAMRIIKHIAKKNGKSLPASLQRLRLEEETGKKLNPSFLDLVRTPQIRKHTMILMYNWFTSSVLYQGLIMHMGLAGDNIYLDFFYSALVEFPAAFMIILTIDRIGRRYPWAASNMVAGAACLASVFIPGDLQWLKIIISCLGRMGITMAYEIVCLVNAELYPTFIRNLGVHICSSMCDIGGIITPFLVYRLTNIWLELPLMVFGVLGLVAGGLVLLLPETKGKALPETIEEAENMQRPRKNKEKMIYLQVQKLDIPLN,Km,[3],80 µM
same,Km,[4],1900 µM
same,Km,[5],34 µM
same,Km,[6],27 µM
same,Km,[7],1300 µM
same,Km,[8],330 µM and 390 µM and 520 µM
